In publication PMC3934923:

Target: LKB1 (endogenous, C2C12 myotubes) (mouse (endogenous in C2C12)) (UniProt Q9WTK7)
Conditions: scale: % of the AMPK phosphorylation obtained with AICAR

Chain of UniProt Q9WTK7 (Q9WTK7 whole entry): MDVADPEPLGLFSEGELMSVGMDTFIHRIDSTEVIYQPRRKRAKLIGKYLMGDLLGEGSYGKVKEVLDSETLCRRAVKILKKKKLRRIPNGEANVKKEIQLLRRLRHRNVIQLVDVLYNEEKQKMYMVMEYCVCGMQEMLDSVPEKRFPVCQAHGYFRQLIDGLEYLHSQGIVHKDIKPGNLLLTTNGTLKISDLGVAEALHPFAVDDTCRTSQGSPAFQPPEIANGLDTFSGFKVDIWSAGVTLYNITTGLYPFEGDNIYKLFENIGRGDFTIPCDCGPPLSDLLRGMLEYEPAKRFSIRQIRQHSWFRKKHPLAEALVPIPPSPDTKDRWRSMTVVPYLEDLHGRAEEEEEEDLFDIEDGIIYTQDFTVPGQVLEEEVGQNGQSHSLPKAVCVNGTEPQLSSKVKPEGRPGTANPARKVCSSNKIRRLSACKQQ

AMPK T172 phosphorylation in C2C12 myotubes transduced with increasing concentrations of 11R-WT, immunoblot; little effect with 11R-Sca: 80
Substance: Fyn (endogenous, C2C12 myotubes) (from UniProt P39688 1-537) (enzyme)
